Source: publication PMC8448731 (Nature Communications, 2021)
Where a chain is given by its changes, count along the chain named.

B1: SR12c3 (VHH)
VHH: EVQLVESGGGLVQAGDSLRLSCAASGAIVHVFAMGWFRQAPGKEREFVASINLDNDVTNYADSVKGRFTISRDDARNTVYLQMNSLKPEDTAVYYCNATIFTDSGLGDYWGQGTQVTVSS
notes: not shown: 6xHis, C-terminal, kept
B2: SR12 (VHH)
VHH: B1 VHH with V57A, T102M, G105D
notes: as for B1
B3: SR2 (VHH)
VHH: EVQLVESGGGLVQAGDSLRLSCAASGAFGSNVFMGWFRQAPGKEREFVASITPHHTVTDYADSVRGRFSISADSAKNTVYLQMNSLKPEDTAVYYCAAAIYRNASVLDYWGQGTQVTVSS
notes: as for B1
B4: SR1 (VHH)
VHH: EVQLVESGGGLVQAGDSLRLSCAASGKTGRSVIMGWFRQAPDKEREFVATITRGDDTTNYADSVKGRFTISRDDARNTVYLQMNSLKPEDTAVYYCAAVYFVNDCIVDYWGQGTQVTVSS
notes: as for B1
B5: SR6c3 (VHH)
VHH: EVQLVESGGGLVQAGDSLRLSCAASGDCHVLWRMGWFRQAPGKEREFVAAISLDGQFTNYADSVRGRFSISADSAKNTVYLQMNSLKPEDTAVYYCAALPFLDYWGQGTQVTVSS
notes: as for B1
B6: SR6v9 (VHH)
VHH: B5 VHH with C28S, N77Y
notes: as for B1
B7: SR6v7 (VHH)
VHH: B5 VHH with C28S, H29Y, V30I
notes: as for B1
B8: SR6v1 (VHH)
VHH: B5 VHH with C28S
notes: as for B1

target: T1, SARS-CoV-2 spike RBD with C-terminal 3xFlag tag and N-terminal signal peptide of the spike (RBD-3xFlag) (SARS-CoV-2, Wuhan-Hu-1 type (wild type), UniProt P0DTC2); experiment: ELISA; details: one partner purified
T1 construct: also called RBD-3×Flag; wild-type RBD; not shown: 3xFlag, C-terminal, kept

Row | Binder | binding result
1 | B1 | binds
2 | B2 | binds
3 | B3 | binds
4 | B4 | binds
5 | B5 | binds
6 | B6 | binds
7 | B7 | binds
8 | B8 | binds
